Test results published in the supplement of paper PMC12764529.
± gives the half width of the 95% confidence interval.

Tests used:
[1] = folding stability dG unfold from trypsin proteolysis; higher = more stable
Summary of the method: (§1)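 Only designs with AlphaFold2 dimer inter-PAE above 15 were retained; each was a mini-protein under 80 residues with no cysteine, in a PA-tagged cDNA display construct. After digestion with trypsin and chymotrypsin and sequencing, K50 was inferred by Bayesian fitting of counts, and unfolding free energy was derived per protease or combined against a sequence-predicted unfolded-state K50 and a shared folded-state K50.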

[2] = folding stability dG unfold from chymotrypsin proteolysis; higher = more stable
Summary of the method: as §1

[3] = folding stability dG unfold (combined trypsin and chymotrypsin); higher = more stable
Summary of the method: as §1

| Sequence | folding stability dG unfold [1] [kcal/mol] | folding stability dG unfold [2] [kcal/mol] | folding stability dG unfold [3] [kcal/mol] |
| --- | --- | --- | --- |
| SAGGSAGGYWMISVKIYDPEDGKPIAQMTFMFDSPEEAERIVEEIADALPPGYRVEVDIHPIPNSAGGSAGG [r6_690_TrROS] | 3.82 ± 0.12 | 4.99 ± 0.14 | 4.85 ± 0.16 |
| SAGGSGPPVLVRLEVEVLGEPYTLTLPVPASLIHPSQRVRFRVRVVSVDPVNNRVTVRIESVELYPSAGGSA [r2_479_TrMRF] | 2.75 ± 0.065 | 3.018 ± 0.021 | 2.98 ± 0.036 |
| SAGGSAGGSAGGMSITFTAPDGSKITATIDPDGNVLVEVHLGDKPYYVKGPVETLLKNAPSAGGSAGGSAGG [r7_178_TrMRF] | 0.325 ± 0.027 | 0.904 ± 0.1 | 0.719 ± 0.07 |
| SAGGSMTAEELEGLPAEEIAELLPSDYTVSFIPETGLLVVEAPTRVVLATYNPAEGTVTLLEVRDASAGGSA [r2_470_TrMRF] | 0.849 ± 0.086 | 0.819 ± 0.07 | 0.91 ± 0.12 |
| SAGGSAGGSAFKLPPGKKITIFFDPENGNFAIMVPDGNERRVPMPAEELIKLGFPVEIIGPWSAGGSAGGSA [r18_125_TrROS] | 0.365 ± 0.14 | 0.566 ± 0.25 | 0.517 ± 0.19 |
| SAGGSAAKITEVEVEELEDGEVLIRVKVKPEDIDALLELAKKLPEENIELVEKREDGYYVLRIKRPSAGGSA [r15_386_TrROS_Hall] | 1.53 ± 0.043 | 1.87 ± 0.16 | 1.67 ± 0.15 |
| SMEEEEEEPEPAPVVVITVEPGETVEQVRAAAREAAEKGMRIVITGLSEEEAKAIAEELGLDVEIEVVEPSA [r9_1207_TrROS_Hall] | 3.01 ± 0.33 | 1.47 ± 0.16 | 2.69 ± 0.78 |
| SAGGSAGGSAGKKITIELPEGVKVYKLPNENDYIIVEDEKTKEKYIFKIKDGKVELIEKLSAGGSAGGSAGG [r11_1036_TrROS_Hall] | 1.01 ± 0.054 | 1.86 ± 0.15 | 1.47 ± 0.14 |
| SAGGIKEVKFDPKTNTLTVYLPEVGATITYNPTAGKLEIYSKDGKPKTIDVPTPSEMKKAILKAYKELKSAG [r5_467_TrMRF] | 1.82 ± 0.064 | 2.84 ± 0.069 | 2.69 ± 0.21 |
| SAGGKPKEITLVVKVGETVEFPEGAEVTYDKETGTVTIKLPDGRTIRVEVTYNPDTDYLVVKITVEPSAGGS [r16_122_TrROS_Hall] | 2.07 ± 0.074 | 2.41 ± 0.083 | 2.34 ± 0.13 |
| SAGGSAGGSPPNWKTIPITFWVDPGDVEEFANILRDLGLEIEDVEVEPNPDGHVWVTITIVIPSAGGSAGGS [r12_905_TrROS] | 2.57 ± 0.17 | 3.54 ± 0.1 | 3.33 ± 0.18 |
| SAGEKKKVVIVVHIHIEAESEEDREKALEEARKLAEELARELKEKLGLPEDVKEVVVIVHIHPRSEEEKSAG [r5_436_TrROS_Hall] | 2.01 ± 0.086 | 2.42 ± 0.083 | 2.25 ± 0.12 |
| SAGGSAGGSAEPDIEVVVTPVPGPYGPLYYRVEVRIPEAGRTVFTYARLDDPEEIEGIPIESAGGSAGGSAG [r3_432_TrMRF] | 0.829 ± 0.066 | 0.545 ± 0.16 | 0.7 ± 0.077 |
| SAGGSAGGYWKVEIKNGMTFSIPGMTLDEAKNHARWHGFPMPIDKIEIEPVKPPPPPPKDPDDQSAGGSAGG [r6_688_TrROS] | 2.27 ± 0.14 | 2.95 ± 0.22 | 2.75 ± 0.35 |
| SAGGLKIDEFERSPNQGRYYVTIKIYHPDNGKPWDIEVPFNPDNGRWSAEEIAKTIAKKFKLPPGFTISAGG [r13_362_TrROS] | 1.814 ± 0.014 | 2.3 ± 0.08 | 2.05 ± 0.062 |
| SAGGSAMTITVTEETDPNTDRKTTTVSLSPGVSEEVLEELKAEAEKKGAKLTVYPEEGVVTVVTPESAGGSA [r15_542_JUSTAS] | 0.0631 ± 0.052 | 0.311 ± 0.065 | 0.224 ± 0.17 |
| SAGGMKVTTKPLPSDSEVVDIPGGVTMKIDPKTGVGTITLPDGKTLKMTITKDPNKNTTTITITPESSAGGS [r8_186_JUSTAS] | 0.366 ± 0.16 | 1.14 ± 0.2 | 0.998 ± 0.22 |
| SAGGSAGGMKVIEIDLPDGSKLKIVIYKDGTLPAYLPEGNKVIVLEIDKNGKIKSVKVFDAKDISAGGSAGG [r6_81_TrMRF] | 2.87 ± 0.16 | 3.52 ± 0.072 | 3.21 ± 0.25 |
| SAGGSAGGSRLDATRALLDKLPPGSVTVTVYVNGKPVTFRFGSREEIEEAIEANPDVEVEIEPASAGGSAGG [r6_421_TrMRF] | 0.93 ± 0.13 | 1.74 ± 0.16 | 1.38 ± 0.098 |
| SAGGPVVTTTTEYDPSTGKTYTVTTVPGSATQTTTYTLPDGTVLTTTTTVSPTTGGVTSTTPTTTPVPASAG [r5_587_JUSTAS] | 1.3 ± 0.046 | 1.31 ± 0.089 | 1.39 ± 0.061 |
| SAGGMESSVTTTPDPNSDTTTTTTTVPLPDETTTTTTTTTTAPGTVTTTTTTYPPGGTPTTTTSTTASAGGS [r16_733_JUSTAS] | 2.38 ± 0.17 | 1.61 ± 0.052 | 1.92 ± 0.12 |

| Sequence | folding stability dG unfold [1] [kcal/mol] | folding stability dG unfold [2] [kcal/mol] | folding stability dG unfold [3] [kcal/mol] |
| --- | --- | --- | --- |
| SAGMTIELPNATVTLERVPVPATGESAWVVTVTARHPDGSTPTVVAVFPEDTPPEDVLAAALALAEELESAG [r5_704_TrMRF] | 4.75 ± 0.44 | 4.62 ± 0.075 | 4.78 ± 0.16 |
| KYELVATLSRPNPETGTVVNVSVYRFEDGSYRVLVDVSTFYRTPDGSLRTSSSRAVFLVPEDVDPRELVESS [r1_243_TrMRF] | 2.75 ± 0.039 | 3.57 ± 0.081 | 3.17 ± 0.11 |
| SGKVVATVPLPDGTVITVEVSPDNTVRVTVVRYRLVPNSTAPAVEVRTYTFPLPPGNPPSIQDVLDRVLSSA [r9_614_TrMRF] | 4.05 ± 0.14 | 4.53 ± 0.053 | 4.41 ± 0.098 |
| SAGGSAGGSAGGPTIVLKVSPEELKALEKAGVEIEKIEKNEDGELYITLTPEALKKAGFESAGGSAGGSAGG [r7_587_TrROS_Hall] | 2.85 ± 0.13 | 2.91 ± 0.057 | 2.97 ± 0.11 |
| SAGGEKPKEVEIEEVVVKNEETGEEVRFFRIRDKETDEWYVLAVVRNKDGEEKVVKMSAEEAKKLLESAGGS [r8_421_TrROS_Hall] | 3.13 ± 0.065 | 3.7 ± 0.044 | 3.59 ± 0.14 |
| SAGGSAGGKKKKKKKKKYYTFVLKVKEKDLTPEEIKKLFPNVKIEKKDGYLVITVKVNGKEIKFSAGGSAGG [r6_738_TrROS_Hall] | 1.43 ± 0.19 | 2.66 ± 0.12 | 2.11 ± 0.31 |
| SAGGSMTEEERRALAEEIAKEVAEKISEEEGIPVKEILSIEVHPDGSVTITIKFPGTEGERTITIPRSAGGS [r16_622_JUSTAS] | 1.96 ± 0.067 | 2.38 ± 0.17 | 2.27 ± 0.19 |
| SAGGSAKPKVEVEIVDVEFEEVEVNGKKYLVMKMKVKLKETGEYIEVTMVFDLKTNKMYIEVKKLPSAGGSA [r15_528_TrROS_Hall] | 3.49 ± 0.29 | 5.09 ± 0.24 | 5.17 ± 0.43 |
| SAGGSAGGSAIKPGETIPIKIGNFPIKITVYGDWVEITFPNGRKIRFRVAVDDGKLEIDIYFSAGGSAGGSA [r18_172_TrROS] | 4.07 ± 0.24 | 4.31 ± 0.14 | 4.18 ± 0.14 |
| SAGKSIKIPYIIRFPSPNGEPHLMRIKEVTINPKPGMVKIKFQMPGKKQTHTVPPNNIEILPDPEEILKSAG [r5_15_TrROS] | 0.116 ± 0.22 | -0.0282 ± 0.33 | -0.0216 ± 0.29 |
| SAGSALAAALKLKTYTIKITAPDGTVIELTISYHPSDPEAIKEALAKAGYPPEKLKTENPNLETTEVDASAG [r5_430_JUSTAS] | 1.62 ± 0.071 | 1.83 ± 0.14 | 1.79 ± 0.16 |
| SAGGKTITLPNGITITVNEDGTVTVTVTVDGKTLTVTVKVDSLEEALAAILEELRRLLKPPEVTVVKPSAGG [r13_896_TrROS_Hall] | 2.52 ± 0.097 | 3.43 ± 0.13 | 3.07 ± 0.17 |
| SAGGSAGGSAKPDPGAPYPWKIVEVVPIRIDMYFKFPGEPFKMDIEIPILVMVDPDNGKIFSAGGSAGGSAG [r3_391_TrROS] | 2.3 ± 0.11 | 2.94 ± 0.064 | 2.7 ± 0.14 |
| SGFEVERVEVEADLDKPTVARFLLVNPDGQPIVALDPVVRLGEEALVLSVYRNPVDGELRVTARRIRLDGSA [r9_269_TrMRF] | 1.1 ± 0.068 | 1.24 ± 0.11 | 1.21 ± 0.043 |
| KAYKVVFPLPKEGRTVVVYVPEEHGKPLTEEEIAALLREAYPDKEPADLPAEELAKILAAKEGVVRVEVEGS [r1_463_TrMRF] | 0.866 ± 0.089 | 0.995 ± 0.12 | 1 ± 0.13 |
| SMTIERHPDKLTVRVPAAFSTVPEVVRFLKELGFELPPGVKDVRVEDVEPGARVVRVTVHFDDPEALERLSA [r9_820_TrMRF] | 1.97 ± 0.024 | 1.58 ± 0.049 | 1.81 ± 0.031 |
| SAGGSAGGSMADITITVTDPATGATRTFPHSVSLEEILAEHPGPVTVTIETPTSTTTLQVPRESAGGSAGGS [r12_1056_JUSTAS] | 0.884 ± 0.03 | 0.0731 ± 0.084 | 0.542 ± 0.056 |
| SAGMTLIIRVKVYNKDGELVEEREIEVPNMSVEEIAEALKKLPNVEKVKIEVFNADGEKKEIEIEVKPSAGG [r19_269_TrROS_Hall] | 3.08 ± 0.13 | 4.43 ± 0.064 | 4.1 ± 0.09 |
| SAGGSAGGSAGGSSSVSVDTDPETGLITVTTYSSSGGVTVTLYEKPPDGSLTPVSTTAVSAGGSAGGSAGGS [r4_106_JUSTAS] | 1.08 ± 0.045 | 0.844 ± 0.07 | 1.01 ± 0.046 |
| SAGGMKIVEITEEVPPGAVVRITFEDGSKREIKIPNVAELKGKKITLELPGLKVVKIEVVPAKEGEEVSAGG [r13_587_TrROS_Hall] | 2.3 ± 0.15 | 1.69 ± 0.29 | 2.05 ± 0.48 |
| SAGGSAGGSAGGPKVEVTVKGKPATVEWFPEEGKARVTVPDGRVYVLDLNGDKLEIKPLSAGGSAGGSAGGS [r10_724_TrMRF] | 0.258 ± 0.041 | 0.588 ± 0.13 | 0.512 ± 0.1 |
